{
  "source": "patent CN113929774A",
  "about": "(INST MICROBIOLOGY CAS, dated 2022)",
  "binders": {"B1": {"name": "9K抗体 (antibody, V domains shown)", "VH": "EVQLVESGGGVVQPGRSLGLSCAVSGFTFSSYAMHWVRQAPGKGLEWVALISNDGTIDSYADSVKGRFTISRDNSKNTLYLRMSSLRAEDTAVYYCARDKEQLVPTFDYWGQGTLVTVSS", "VL": "not shown"}},
  "target": "SARS-CoV-2野生型(WT)活病毒的S蛋白 (hCoV-19/China/CAS-B001/2020) (SARS-CoV-2, UniProt P0DTC2 14-1273)",
  "test": "cell-based or functional assay",
  "data": [
    {"binder": "B1", "values": [
      {"measurement": "中和滴度(半抑制浓度，IC50), live virus CPE assay on Vero E6 cells", "result": 49.4, "unit": "µg/mL"}
    ]}
  ]
}
